Assay results from US20150056232A1.

Target: TLR5

## FliC180 protein of S. Typhimurium (Phase I FliC flagellar antigen with the ΔfliC180 deletion) (from UniProt P06179) (ligand)
  NF-κB production (% higher than the FliC+ strain): 50
